In US20080311122A1, “Antagonists of Hmgb1 and/or Rage and Methods of Use Thereof” (Medimmune, LLC, priority 2005, published 2008):

Legend:
[1] = molecular target: T1, recombinant HMG1 (Homo sapiens, UniProt P09429); test: HMG1 binding affinity via BIAcore analysis
T1 construct: made in house; host or cells: E. coli
T1 sequence (P09429 1-215): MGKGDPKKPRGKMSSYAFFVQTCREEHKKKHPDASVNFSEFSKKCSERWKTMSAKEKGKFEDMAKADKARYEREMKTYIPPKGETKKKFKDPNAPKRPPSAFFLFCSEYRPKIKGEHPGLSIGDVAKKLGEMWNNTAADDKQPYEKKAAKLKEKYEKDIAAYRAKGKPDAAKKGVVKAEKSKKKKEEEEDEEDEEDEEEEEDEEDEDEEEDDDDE
Procedure: HMG1 Binding Affinity via BIAcore Analysis: All experiments were performed on a BIAcore 3000 instrument (BIAcore, Inc., Piscataway, N.J.). Briefly, each mAb was immobilized to a CM5 sensor chip using a standard amino coupling chemistry. Separately a reference (control) flow cell was also prepared. Two-fold, serial dilutions of HMG1 in instrument buffer were sequentially injected at a slow flow rate over the individual mAb and reference flow-cell surfaces. Following the binding and dissociation of HMG1, the mAbs surfaces were regenerated with a brief pulse of 1M NaCl-50 mM NaOH. At the end of each experiment, the binding curves were evaluated using a steady-state model available through the BIA evaluation software supplied by BIAcore, Inc. (Piscataway, N.J.).

[2] = Differential scanning calorimetry; format: physicochemical; set-up: unit: °C; details: in °C (unit assumed)
Procedure: Differential Scanning Calorimetry: Thermal melting temperatures (Tm) were measured with a VP-DSC (MicroCal, LLC) using a scan rate of 1.0° C./min and a temperature range of 25-120° C. A filter period of 8 seconds was used along with a 5 minute pre-scan thermostating. Samples were prepared by dialysis into 25 mM Histidine-HCl, pH 6 using Pierce dialysis cups (3.5 kD). Average Mab concentrations were 50 μg/mL as determined by A280. Melting temperatures were determined following manufacturer procedures using Origin software supplied with the system. Briefly, multiple baselines were run with buffer in both the sample and reference cell to establish thermal equilibrium. After the baseline was subtracted from the sample thermogram, the data were concentration normalized and fitted using the deconvolution function.

[3] = molecular target: T2, HMG1 peptides (Homo sapiens, UniProt P09429); test: HMG1 B Box and peptide mapping ELISA; format: binding; details: B Box peptide ELISA
T2 sequence (P09429 91-169 P98L): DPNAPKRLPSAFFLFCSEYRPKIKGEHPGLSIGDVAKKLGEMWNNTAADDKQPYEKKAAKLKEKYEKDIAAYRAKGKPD
Procedure: (§1) HMG1 B Box and Peptide Mapping: Individual wells of a 96-well immunoplate (EIA/RIA plate, High binding, Costar) were coated with HMG1 B Box peptide amino acids 91-169 (FIG. 5A) or amino acids 150-183 (FIG. 5B) at 10 μg/ml in PBS at 4° C. overnight. The plate was then blocked with 4% milk powder dissolved in PBS at 37° C. for 1 hour. The blocking solution was removed and replaced with human anti-HMG1 antibodies at various concentrations (see FIGS. 5A-B). The plate was then washed (ELX-405 Plate washer, BIO-TEK) and secondary antibody (anti-human IgG-HRP, PIERCE) was added at a final concentration of 1:125,000 at 37° C. for 1 hour. HRP activity was detected with Sureblue HRP substrate (KPL). Plates were read at 450 nm using a Kinetic Microplate Reader (Molecular Devices). To obtain more detailed peptide mapping information, similar ELISA assays were performed using 16 biotinylated overlapping peptides spanning the HMGB1 protein from amino acid 1 to 215 as follows, maxisorp microtiter plate was coated with 2 μg/ml of NeutroAvidin (Pierce) overnight at 4° C. After washing and blocking with 1% BSA in PBS, the biotinylated peptides were individually added into the avidin coated wells and incubated for 30 min at room temperature. The serial diluted antibody G4, S16 and S6 at the initial concentration at 10 μg/ml were then transferred into the wells followed by adding mouse anti human IgG-HRP conjugate (Pierce). Detection was accomplished by adding 50 μl of tetramethylbenzidine (TMB) substrate (KPL) and the absorbance was read at […]. The peptides used were amino acids: 46-63; 61-78; 76-93; 91-108; 106-123; 136-153; 151-168; 166-183; 179-185; 181-198; and 196-215.

[4] = molecular target: T3, HMG1 peptides (Homo sapiens, UniProt P09429); test: HMG1 B Box and peptide mapping ELISA; format: binding; details: B Box peptide ELISA; remark: listed apart in the source
T3 sequence (P09429 150-183): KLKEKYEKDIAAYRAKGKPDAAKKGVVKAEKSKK
Procedure: as §1

[5] = test system: mouse CLP model of sepsis; test: Cecal ligation and puncture (CLP) model of sepsis; format: in vivo; details: percent protection, isotype control subtracted
Procedure: Anti-HMGB1 in Sepsis: To establish live intra-abdominal infection and sepsis, Balb/C mice (9-11 per group) were subjected to the CLP procedure as described previously (Fink and Heard, 1990, J Surg Res 49:186-196; Wichmann et al., 1996, J Surg Res 65, 109-114). After anesthesia with an intramuscular injection of ketamine (75 mg/kg, Fort Dodge Laboratories, Fort Dodge, Iowa) and xylazine (20 mg/kg, Bochringer Ingelheim), a 15-mm midline incision was made to expose the cecum. After ligation 5.0 mm from the tip, the cecal stump was punctured once with a 22-gauge needle, and small amount of stool (1-mm length) was extruded. The cecum was placed back into its normal intra-abdominal position, and the wound was closed with two layers of running suture. All animals received saline-solution (0.9% s.c., 20 ml/kg of body weight) resuscitation, and a single dose of antibiotic (0.5 mg of imipenem per mouse in 200 μl of sterile saline injected s.c.) (Primaxin, Merck) 30 min after surgery.
Anti-HMG1 antibodies or isotype control antibodies (50 μg/mouse in a 200 μl volume), were administered intraperitoneally at 24 and 48 hours, post surgery. In certain follow up experiments anti-HMG1 antibodies or isotype control antibodies (8 mg/kg) were administered intraperitoneally at 24 hours, post surgery (FIG. 11C-D). These experiments were blinded—the surgeons randomized the cages, and the encoded antibodies were dosed by another investigator. The survival of the mice was monitored twice daily for a total of 14 days. The survival curves for several representative experiments where the antibodies were delivered at 50 μg/mouse at times 24 and 48 are shown in FIGS. 11A and 11B. The survival curve generated by combining several representative experiments where the antibodies were delivered at 8 mg/kg 24 hours post surgery is shown in FIG. 11C. Several additional antibodies and the oligoclonal antibody pool were tested at 8 mg/kg administered 24 hours post surgery (FIG. 11D).

Molecule | Kd [1] [µM] | Tm [2] | binding to HMG1 peptide 91-169 [3] | binding to HMG1 peptide 150-183 [4] | in vivo CLP [5]
S17: human anti-HMG1 antibody; VL/VH aa SEQ ID NO: 70/72 (antibody, listed as Homo sapiens, V domains shown) VH: EVQLLESGGGLVQPGGSLRLSCAASGFTFSYYDMHWVRQAPGKGLEWVSRISPSGGYTWYADSVKGRFTISRDNSKNTLYLQMNSLRAEDTAVYYCTRGRYTSGWHEYFDPWGQGTLVTVSS VL: AQDIQMTQSPSSLSASVGDRVTITCRASQSIGTYLNWYQQKPGTAPKVLIYAASSLQSGVPSRFSGSGSGTDFTLTISSLQPEDFSTYYCQQSYNTPRTFGQGTKLEIK | 0.331 | 90.0 | – | – | –
G9: human anti-HMG1 antibody; VL/VH aa SEQ ID NO: 34/36 (antibody, listed as Homo sapiens, V domains shown) VH: EVQLLESGGGLVQPGGSLRLSCAASGFTFSSYDMFWVRQAPGKGLEWVSRISPSGGYTYYADSVKGRFTISRDNSKNTLYLQMNSLRAEDTAVYYCARLRYFDSRGYAFDIWGQGTMVTVSS VL: AQDIQMTQSPGTLSLSPGERATLSCRASQSVRSSYLAWYQQKPGQAPRLLIYGASTRATGIPDRFSGSGSGTDFTLTISRLEPEDFAVYYCQQYGTSRWTFGQGTKVEIK | – | 77.9 | do not bind either of the HMG1 B Box peptides | do not bind either of the HMG1 B Box peptides | –
E11: human anti-HMG1 antibody, recognizes HMG1 A-Box; VL/VH aa SEQ ID NO: 24/26 (antibody, listed as Homo sapiens, V domains shown) VH: EVQLLESGGGLVQPGGSLRLSCAASGFTFSRYQMNWVRQAPGKGLEWVSSISPSGGHTHYADSVKGRFTISRDNSKNTLYLQMNSLRAEDTAVYYCAKDGRQGKISTVDHWGQGTLVTVSS VL: AQDIQMTQSPGTLSLSPGERATLSCRASQSVRSNFLAWYQQKPGQAPRLLIYGASRRASGIPDRFSGSGFGADFTLSISRLEPEDFAVYYCQQYGSSPNTFGQGSRVEIK | – | 66.3 | – | – | 35%
S12: human anti-HMG1 antibody; VL/VH aa SEQ ID NO: 62/64 (antibody, listed as Homo sapiens, V domains shown) VH: EVQLLESGGGLVQPGGSLRLSCAASGFTFSKYIMHWVRQAPGKGLEWVSGIVPSGGLTEYADSVKGRFTISRDNSKNTLYLQMNSLRAEDTATYYCAKEIFGQFDYWGQGTLVTVSS VL: AQSALTQPPSVSAAPRQRVTISCSGSTSNIGNNAVTWYQYFPGKAPKLLIYSDNQRPSGVPDRFSGSKSGTSASLAITGLQAEDEADYYCQSYDRGLSVVFGGGTKLTVL | – | 66.9 | bind to HMG1 peptide 91-169 | only S12 binds to HMG1 peptide 150-183 | –
S16: human anti-HMG1 antibody, ATCC PTA-6259; VL/VH aa SEQ ID NO: 13/15 (antibody, listed as Homo sapiens, V domains shown) VH: EVQLLESGGGLVQPGGSLRLSCAASGFTFSWYSMLWVRQAPGKGLEWVSYISPSGGFTNYADSVKGRFTISRDNSKNTLYLQMNSLRAEDTAVYYCARWDYNSGWYYDHWGQGTLVTVSS VL: AQDIQMTQSPDTLSLSPGERATLSCRASQSVNSRNLAWYQQKPGQAPRLLIYGASTRATGIPDRFSGSVSGTEFTLTISSLQPDDFATYYCQQYNSYFTFGQGTKLEIK | – | 71.4 | bind to HMG1 peptide 91-169 | – | 60-75%
G20: human anti-HMG1 antibody; VL/VH aa SEQ ID NO: 46/48 (antibody, listed as Homo sapiens, V domains shown) VH: EVQLLESGGGLVQPGGSLRLSCAASGFTFSWYDMFWVRQAPGKGLEWVSWISPSGGYTKYADSVKGRFTISRDNSKNTLYLQMNSLRAEDTAMYYCARSGLDYYDSSGYLDAFDIWGQGTMVTVSS VL: AQDIQMTQSPSSVSASVGDRVTITCRASQDVSIWLAWYQQKPGKAPKLLIFGASRLQSGVPSRFSGSRSGADFTLTIDSVQPEDFASYYCQQADSFPLTFGGGTKVEIK | 0.114 | 71.2 | – | – | –
S10: human anti-HMG1 antibody; VL/VH aa SEQ ID NO: 58/60 (antibody, listed as Homo sapiens, V domains shown) VH: EVQLLESGGGLVQPGGSLRLSCAASGFTFSWYDMWWVRQAPGKGLEWVSWIVPSGGITAYADSVKGRFTISRDNSKNTLYLQMNSLRAEDTATYYCARGNYGPSPFDYWGQGTLVTVSS VL: AQDIQMTQSPGTLSLSPGERATLSCRATQSVRKNFLAWYQQKPGQAPRLLIYDASSRATGIPDRFSGSGSGTDFTLTISRLEPEDFAVYYCQQYGNSPIIFGQGTRLEIK | – | 75.3 | do not bind either of the HMG1 B Box peptides | do not bind either of the HMG1 B Box peptides | –
G2: human anti-HMG1 IgG1 from Fab phage display library; VL/VH aa SEQ ID NO: 30/32 (antibody, listed as Homo sapiens, V domains shown) VH: EVQLLESGGGLVQPGGSLRLSCAASGFTFSWYKMQWVRQAPGKGLEWVSGISPSGGSTAYADSVKGRFTISRDNSKNTLYLQMNSLRAEDTAVYYCAKMGLFNTGNSYVDYWGQGTLVTVSS VL: AQSELTQPPSVSEAPGQRVTISCSGSTSNIGNNAVIWYQQLPGKAPKLLIYYDDLLPSGVSDRFSGSKSGTSGSLAISGLQSEDEADYYCASWDDNLNGPLFGGGTKLTVL | 0.101 | 67.1 | do not bind either of the HMG1 B Box peptides | do not bind either of the HMG1 B Box peptides | 60%
